Measurements: patent publication EP4019090A1 (Numab Therapeutics AG, dated 2022)
Values belong to the binder of their own block, whether it stands above or below them.

How the values were obtained:
[1] = biological target: T1, IL-4R on HEK-Blue cells (human, UniProt P24394 26-825); assay: cell-based or functional assay
T1 sequence (looked up): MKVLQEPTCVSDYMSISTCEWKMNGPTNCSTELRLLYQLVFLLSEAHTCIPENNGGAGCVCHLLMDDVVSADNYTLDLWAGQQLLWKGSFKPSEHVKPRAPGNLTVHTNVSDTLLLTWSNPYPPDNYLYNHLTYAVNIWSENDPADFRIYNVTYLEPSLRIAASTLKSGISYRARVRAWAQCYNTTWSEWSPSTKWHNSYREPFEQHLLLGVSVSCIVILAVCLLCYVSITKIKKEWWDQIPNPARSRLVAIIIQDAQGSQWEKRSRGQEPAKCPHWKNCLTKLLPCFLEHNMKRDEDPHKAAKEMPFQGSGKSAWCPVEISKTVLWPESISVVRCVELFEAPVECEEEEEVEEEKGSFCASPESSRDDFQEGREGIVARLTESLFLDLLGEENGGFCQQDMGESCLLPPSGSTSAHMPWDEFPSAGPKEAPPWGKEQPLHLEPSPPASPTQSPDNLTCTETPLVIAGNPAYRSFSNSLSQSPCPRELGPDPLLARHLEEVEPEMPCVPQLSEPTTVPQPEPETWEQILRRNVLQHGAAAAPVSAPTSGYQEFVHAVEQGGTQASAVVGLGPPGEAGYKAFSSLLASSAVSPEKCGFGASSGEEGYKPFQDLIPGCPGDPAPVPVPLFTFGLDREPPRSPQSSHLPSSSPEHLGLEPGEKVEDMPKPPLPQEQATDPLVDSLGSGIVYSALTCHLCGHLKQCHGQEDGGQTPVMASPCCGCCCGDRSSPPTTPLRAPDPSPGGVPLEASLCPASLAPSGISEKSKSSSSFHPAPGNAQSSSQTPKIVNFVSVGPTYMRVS

[2] = biological target: T1, IL-4R on HEK-Blue cells; assay: cell-based or functional assay; remark: listed apart in the source
[3] = biological target: T1, IL-4R on HEK-Blue cells; assay: cell-based or functional assay; remark: listed apart in the source
[4] = biological target: T2, recombinant cynomolgus monkey IL-4R (ECD with His-tag, Acro Biosystems) (cynomolgus monkey, UniProt A0A2K5V580 33-239); assay: SPR (Biacore T200); antibody captured via anti-human IgG-Fc, cynomolgus IL-4R ECD-His as analyte; 1:1 Langmuir
T2 construct: extracellular domain; also called cynomolgus IL-4R; not shown: His tag
T2 sequence: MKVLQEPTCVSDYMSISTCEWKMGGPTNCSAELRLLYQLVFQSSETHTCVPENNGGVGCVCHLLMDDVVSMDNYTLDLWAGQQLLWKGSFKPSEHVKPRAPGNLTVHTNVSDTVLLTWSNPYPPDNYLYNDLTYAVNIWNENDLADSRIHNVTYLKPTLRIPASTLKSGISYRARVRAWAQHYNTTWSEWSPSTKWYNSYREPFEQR

[5] = biological target: T3, recombinant human IL-4R protein (ECD with His Tag, Sino Biological) (human, UniProt P24394 26-232); assay: SPR (Biacore T200); antibody captured via anti-human IgG-Fc, human IL-4R ECD-His as analyte; 1:1 Langmuir
T3 construct: extracellular domain; also called human IL-4R ECD; not shown: His tag
T3 sequence (looked up): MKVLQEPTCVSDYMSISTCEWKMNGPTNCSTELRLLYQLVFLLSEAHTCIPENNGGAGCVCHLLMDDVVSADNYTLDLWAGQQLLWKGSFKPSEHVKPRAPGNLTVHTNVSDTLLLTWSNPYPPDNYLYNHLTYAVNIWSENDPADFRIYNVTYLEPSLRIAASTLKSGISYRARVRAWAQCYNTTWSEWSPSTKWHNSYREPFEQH

Neutralization of hIL-4-induced signaling in reporter gene assay: IC50 [1]: 1.44 ng/mL
Neutralization of hIL-13-induced signaling in reporter gene assay: IC50 [1]: 1.83 ng/mL
B1: PRO1517 (scFv)
chain: DIQMTQSPSSLSASVGDRVTITCQASEDIESYLAWYQQKPGKAPKLLIYRASTLAYGVPSRFSGSGSGTDFTLTISSLQPEDFATYYCLGSSYSTGSNIFGTGTKVTVLGGGGGSGGGGSGGGGSGGGGSEVQLVESGGGLVQPGGSLRLSCAASGFSSSSAHYMCWVRQAPGKGLEWIGCIYAGSRGSTYYASWAKGRFTISRDNSKNTVYLQMNSLRAEDTAVYYCARAAFVNRGVSWIWPYYFSLWGQGTLVTVSS

neutralize human IL-13 induced signaling in the stat-6 reporter gene assay: Mean IC50 [pM] [2]: 22.1 pM
neutralize human IL-4-induced signaling in the stat-6 reporter gene assay: Mean IC50 [pM] [3]: 23.9 pM
B3: PRO2198 (bispecific antibody)
chain 1: DIQMTQSPSSLSARVGDRVTITCQASEDIESYLAWYQQKPGKAPKLLIYRASTLAYGVPSRFSGSGSGRDFTLTISSLQPEDFATYYCLGSSYSTGSNIFGQGTKVEIKRTVAAPSVFIFPPSDEQLKSGTASVVCLLNNFYPREAKVQWKVDNALQSGNSQESVTEQDSKDSTYSLSSTLTLSKADYEKHKVYACEVTHQGLSSPVTKSFNRGEC
chain 2: not shown

Second part, the binder before the results:

B2: PRO1535 (scFv)
chain: DIQMTQSPSSLSASVGDRVTITCQASEDIESYLAWYQQKPGKPPKLLIYRASTLAYGVPSRFSGSGSGTDFTLTISSLQPEDFATYYCLGSSYSTGSNIFGTGTKVTVLGGGGGSGGGGSGGGGSGGGGSESQLVESGGGLVQPGGSLRLSCAASGFSSSSAHYMCWVRQAPGKGLEWIACIYAGSRGSTYYASWAKGRFTISKDNSKNTVYLQMNSLRAEDTAVYFCARAAFVNRGVSWIWPYYFSLWGQGTLVTVSS
Neutralization of hIL-4-induced signaling in reporter gene assay: IC50 [1]: 1.15 ng/mL
Neutralization of hIL-13-induced signaling in reporter gene assay: IC50 [1]: 2.3 ng/mL

B4: PRO2199 (bispecific antibody)
chain 1: not shown
chain 2: DIQMTQSPSSLSASVGDRVTITCQASEDIESYLAWYQQKPGKAPKLLIYRASTLAYGVPSRFSGSGSGTDFTLTISSLQPEDFATYYCLGSSYSTGSNIFGQGTKVEIKRTVAAPSVFIFPPSDEQLKSGTASVVCLLNNFYPREAKVQWKVDNALQSGNSQESVTEQDSKDSTYSLSSTLTLSKADYEKHKVYACEVTHQGLSSPVTKSFNRGEC
Kd [4]: 0.0351 nM
koff [4]: 3.44e-05 s⁻¹
kon [4]: 980000 M⁻¹ s⁻¹
neutralize human IL-13 induced signaling in the stat-6 reporter gene assay: IC50 [pM] (single analysis) [2]: 11.3 pM
Kd [5]: 0.197 nM
koff [5]: 5.76e-05 s⁻¹
kon [5]: 293000 M⁻¹ s⁻¹
neutralize human IL-4-induced signaling in the stat-6 reporter gene assay: Mean IC50 [pM] [3]: 11.5 pM
